From paper PMC10960309

Key:
Assay in all cases: purified protein
Settings in all cases: 50 mM sodium borate pH 9.5, 37°C, 1.9 mM OPA, 1 mM DTT, 5% DMSO
[1] = substrate: CCCCCCCC(=O)N[C@H]1CCOC1=O
[2] = substrate: CCCCCCCCCC(=O)N[C@H]1CCOC1=O
[3] = substrate: CCCCCCCCCCCC(=O)N[C@H]1CCOC1=O
[4] = substrate: CCCCCCCCCC(=O)CC(=O)N[C@H]1CCOC1=O

B1: PvdQ (Pseudomonas aeruginosa PAO1) (protein)
chain 1: DMPRPTGLAADIRWTAYGVPHIRAKDERGLGYGIGYAYARDNACLLAEEIVTARGERARYFGSEGKSSAELDNLPSDIFYAWLNQPEALQAFWQAQTPAVRQLLEGYAAGFNRFLREADGKTTSCLGQPWLRAIATDDLLRLTRRLLVEGGVGQFADALVAAAPPGAEKV
chain 2: SNAIAVGSERSADGKGMLLANPHFPWNGAMRFYQMHLTIPGRLDVMGASLPGLPVVNIGFSRHLAWTHTVDTSSHFTLYRLALDPKDPRRYLVDGRSLPLEEKSVAIEVRGADGKLSRVEHKVYQSIYGPLVVWPGKLDWNRSEAYALRDANLENTRVLQQWYSINQASDVADLRRRVEALQGIPWVNTLAADEQGNALYMNQSVVPYLKPELIPACAIPQLVAEGLPALQGQDSRCAWSRDPAAAQAGITPAAQLPVLLRRDFVQNSNDSAWLTNPASPLQGFSPLVSQEKPIGPRARYALSRLQGKQPLEAKTLEEMVTANHVFSADQVLPDLLRLCRDNQGEKSLARACAALAQWDRGANLDSGSGFVYFQRFMQRFAELDGAWKEPFDAQRPLDTPQGIALDRPQVATQVRQALADAAAEVEKSGIPDGARWGDLQVSTRGQERIAIPGGDGHFGVYNAIQSVRKGDHLEVVGGTSYIQLVTFPEEGPKARGLLAFSQSSDPRSPHYRDQTELFSRQQWQTLPFSDRQIDADPQLQRLSIRE
Km [1]: (1.18 ± 0.34) × 10^2 μM | Km [2]: (1.13 ± 0.42) × 10^2 μM | Km [3]: 98.1 ± 34.1 µM | Km [4]: (2.35 ± 0.07) × 10^2 μM | kcat [4]: 5.23 ± 0.55 s⁻¹ | kcat/Km [4]: 22200 ± 4000 M⁻¹ s⁻¹
